The nanobody polyreactivity screen of Harvey et al. (2022)

Assay: yeast display, Sf9 membrane polyspecificity reagent, FACS + sequencing; frameworks hold sequencing errors
Outline: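 Galactose induction of a Saccharomyces cerevisiae BJ5465 synthetic nanobody display library ran 36–48 hours. The cells were then stained for 1 hour at 4 °C with 10% biotinylated, detergent-solubilized Sf9 membrane reagent, pulled down on streptavidin microbeads and FACS-sorted into low and high (top ~1%) gates on expression and reagent-binding fluorescence. Labels for polyreactivity follow the gate of origin.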

Sequence | polyreactivity (PSR sort gate)
QVQLVESGGGLVQAGGSLRLSCAASGRIFLYNAMGWYRQAPGKERELVAVISSNGGRTYYADSVKGRFTISRDNAKNTVYLQMNSLKPEDTAVYYCAAVQHYVTHMDYWGQGTQVTVSS | low polyreactivity
QVQLVESGGGLVQAGGSLRLSCAASGSTFPHYAMGWYRQAPGKERELVAAISWSGSSTYYADSVKGRFTISRDNAKNTVYLQMNSLKPEDTAVYYCNILPRRAPQFTYDYWGQGTQVTVSS | high polyreactivity
QVQLVESGGGLVQAGGSLRLSCAASGSIFLVYAMGWYRQAPGKERELVAVITKSGGSTYYADSVKGRFTISRDNAKNTVYLQMNSLKPEDTAVYYCAARRRGARHDYWGQGTQVTVSS | high polyreactivity
QVQLVESGGGLVQAGGSLRLSCAASGFIFSVYAMGWYRQAPGTEREFVAAIRWSGGSTYYADSVKGRFTISRDNAKNTVYLQMNSLKPEDTAVYYCAARARDHYGYWGQGTQVTVSS | high polyreactivity
QVQHVESGGGLVQAGGILRFSSPASGGTVNINAMGWYIQAPGKERELFADISYSDGTTDYADSVKGRFTISRDNAKNTVYLQMNSLKPEDTAVYYCAAYYYYYSGFGQRSYSWGQGTNVTVSS | low polyreactivity
QVQLVESGGGLVQAGGSLRLSCAASGITFYEYTMGWYRQAPGKERELVAVIRKTGGSTYYADSVKGRFTISRDNAKNTVYLQMNSLKPEDTAVYYCAARKRYQRGYWGQGTLVTVSS | high polyreactivity
QVQLVESGGGLVQAGGSLRLSCAASGSTFLYYAMGCYRQAPGKDRELVARITTRVGRTYYADSVKGRFTISRDNAKNTVYLQMNSLKPEDTAVYYCNAPYLKSRFRAYYHWGQGTQVTVAS | high polyreactivity
QVQLVESGGGLVQAGGSLRLSCAASGNIFQGNAMGWYRQAPGKERELVAAITSDGSTYADSVKGRFTISRDNAKNTVYLQLNSLKPEDTAVYYCNADGITSLPVPALDYWGQGTQATVSS | low polyreactivity
QVQLVESGGGLVQAGGSLRLSCAASGSIFRVYAMGWYRQAPGKERELVAGITWTGTRTYYADSVKGRFTISRDNAKNTVYLQMNSLKPEDTAVYYCAARYTIRYKRYDYWGQGTQVTVSS | high polyreactivity
QVQLVESGGGLVQAGGSLRLSCAASGRIFTKYAMGWYRQAPGKERELVATITRNGGSTYYADSVKGRFTISRDNAKNTVYLQMNSLKPEDTAVYYCAADKRYKLDYWGQGTQVTVSS | high polyreactivity
QVQLVESGGGLVQAGGSRRLSCAASGNTFTWYTMGWYRQAPAKERELVAVITSDGSTYYADSVKGRFTISRDNAKNTVYLQMNSLKPEDTAVYYCNALSADWYPEEDYWGQGTQVTVSS | low polyreactivity
QVQLVESGGGLVQAGGSLRISCAASGITFYFNAMGWFRQAPGKERDLVAVITSVGSTNYADSVKGRFTISRDNAKNTDYIQMNSLKPEDTAVYYCYRTSYVKTPTKRYNYWGQGTQVTVSS | low polyreactivity
QVQLVETGGGLVQAGGSLRLSCAASGRTFAGNAMGWYRQAPGKERELVAGISSGGSTNYADSVKGRFTISRDNAKNTVYLQMNSLNPEDTAVYYCAKRYFRKGYPLFHYAYGYWGQVTQVTVSS | high polyreactivity
QVQIVESGARLVQAGGSLRLSCAASGRTFYAYAMGWYTQAPGKDREYFASIRLRGGSTYYADSVKGRFTISRDNAKNTVYLQMHSLKPEDTAVYYGNAFYGGSSSYWYYSWGQGTQVTVSS | high polyreactivity
QVQLVESGGGLVQAGGSLRISCAPSGSIFESNAMGWYRQAPGKERELVADITYRGTRTYYADSVKGRFTISRDNAKNTVYLQMNSLKPEDTAVYYCAVWQDHYDWGQGTQVTVSS | low polyreactivity
QVPLVESGGGLVQAGGRLRLSCAASGSTLLNSPMGWYRKAPGKERELVAAISSSGGRTYYPDSVKGRFTISRDNAKNTVYLQMNSLTPEDTEVYYCNKVLGYPKTFGYWGQGTQVSVSS | high polyreactivity
QVKLLESGGGLVQAGGSLLLSCAASGSIFDGYSMVWYRQAPGKEREFVASIRFSTGRTYYADSVKGRFTISRDNAKNTVYLQMNSLKPEDTAVYYCNAPQGFVWRYSSWGPYDYWGQGTQVTVSS | high polyreactivity
QVQLVESGGGLVQAGGSLRLSCAASGRTISYAMGWYRQAPGKERELVAAIRYRGGSTYYADSVKGRFTISRDNAKNTVYLQMNSLKPEDTADYYCDAQDSYTPPILFRRGYLRYDYWGQGTQVTVSS | low polyreactivity
QVQRVESGGGLVQAGGSLRLSCAPSAIIIYYYAMGCYRQAPGNEMELVAGISYSGGSTYADSVKGRLTISRDNAKNTVYLQMNSLKPEDTAVYFCAADYDYGGHWYDYWGQGTQVTVSS | low polyreactivity
QVQLVESGGGLVQAGGSLRLSCAASGFIFYSNAMGWYRQSPGKERELVAGISRGGSTYYADSVKGRFTISRDNAKNTVYLQMNRLKPEDTAVYYCAAKISLGDDYWGQGTQVTVSS | low polyreactivity
QVQLVESGGGLVQAGGSLRLSCAASGGTFFYNAMGWYRQAPGKERELVAAINGGTSTNYADSVKGRFTISRDNAKNTVYLQMNSLKPEDTAVYYCAAVYRRLGRYDWYDYWGQGTQVTVSS | low polyreactivity
QVQLVESGGGLVQAGGSLRLSCAASGRNFYAYAMGWYRQAPGKERELVAGITYSGSSTYYADSVKGRFTISRDNAKNTVYLQMNSLKPEDTAVYYCAADLTRVLRYNYWGQGTQVTVSS | low polyreactivity

Sequence | polyreactivity (PSR sort gate)
QVQLVESGGGLVQAGGSLRLSCAASGFIFRYNTMGWYRQAPGKERELVATINRSGGSTYYADSVKGRFTISRDNAKNTVYLQMNSLKPEDTAVYYCAARSGTRWRSGYYYWGQGTHVTVSS | high polyreactivity
QVQLVESGGGLVQAGGSLRLSCAASGSIFGLYAMGWYRQAPGIERALVAAITTTGGSTYYADSVKGRFTISRDNAKNTVYLQMNSLKPEDTAVYYCNADYVAYGPEYDYWGQGTQVTVSS | low polyreactivity
QVQLVESGGGLVQAGGSLRLSCAASGYTSAKNGMGWYRQAPGKEREFVAGISRSGSSTYYADSVKGRFTISRDNAKNTVYLQMNSLKPEDTAVYFCAADWSVFTYFYGYDYWGQGTQVTVSS | low polyreactivity
QVQLVESGGGLVQAGGSLRLSCAASGLIFPIYAMGWYRQAPGKERELVAVITWSGGSTYYADSVKGRFTISRDNAKNTVYLQMNSLKPEDTAVYYCAVEWAYPYWYTYYLEDYWGQGTQVTVSS | low polyreactivity
QVHLVESGGGLGKAGGSLRLSSAASGRTFQYYTMGWYRQAPGKARELVAAIRRGGSTYYADSVKGRFTISRDNAKNTVYLQMYSLKPEDTAVYYCAALYAYSLTARGMEYWGQGTQVTVSS | high polyreactivity
QVQLVESGGGLVQAGGSLRLSCAASGRIFSLNVMGWYRPAPGKERELVATIRGRGTSTYYADSVKGRFTISRDNAKNTVYLQMNSLKPEDTAVYYCAARGHGAYGYWGQGTQVTVSS | low polyreactivity
QVQLVESGGVLVQAGGSLRLSCAASGFTFLAYAMGWYRQAPGKERELVAAINSSDGTTHYADSVKGRFTISRDNAKITVYLQMNSLKPEDTAVYYCAVSQVRTGEGYHYWGQGTQVTVSS | low polyreactivity
QVQLVESGGGLVQAGGSLRLSCAASGLTFPYYVMGWYRQAPGKERELVAAISSSGGSTYYADSVKGRFTISRDNAKNTVYLQMNSLKPEDTAVYYCNALGHFSKIATYDYWGQGTQVTVSS | low polyreactivity
QVQLVESGGGLVQAGGSLRLSCAASGRIFARYAMGWYRQAPGKERELVAAISFRGGSTYYADSVKGRFTISRDNAKNTVYLQMNSQKPEDTAVYYCNGRYGRGGYDYWGQGTQVTVSS | high polyreactivity
QVQLVESGGGLVQAGGSLRLSCAASGFIFSYYVMGWYRQAPGKERELVAAINESGGRTYYADSVKGRFTISRDNAKNTVYLQMNSLKPEDTAVYYCATIPGYVYYWQYKYDYWGQGTQVTVSS | low polyreactivity
QVQLVESGGGLVQAGGSLRLSCAASGRIFSYNAMGWDRQAPGKERELVSAISYGGGRTYYADSVKGRFTISRYNAKNTVYLQMNSLKPEDTAVYYCNRYGRQYDFFYWGQGTQVTGSS | high polyreactivity
QVQLVESGVGLVQAGGSLRLSCAASGFTFRRYAMGWYRQAPGKERELVAAISIRGGRTYYADSVKGRFTISRDNAKNTVYLQMNSLKPEDTAVYYCAADGVYALDVESDSWGQGTQVTVSS | high polyreactivity
QVQLVESGGGLVQAGGSLRLSCAASGLTFTTYAMGWYRQAPGKERELVAAISRRGSRTYYADSVKGRFTISRDNAKNTVYLQMNILKPEDTEVYYCNAMTGSFKTYSFDYWGHGTQVTVSS | high polyreactivity
QVKLVESGGGLVQAGGSLRLSCAASGLTFRSYAMRWYRQAPGKERELVAAITRSGGSTYYADSVKGRFTISRDNAKNTVYLQMNRLKPEDTAVYYCAADYGRTLTGGDYWGQGTKVTVSS | high polyreactivity
QVQLVESGGGLVQAGRTLRLSCAATGFIIVHNAMGWYRQPPGKERELVAAITSRGRTYYADSVKGRFTISRDHAKNTVYLQMNSLKPEDTAVYYCNPYWRGDYRYDSWGQGTQVTVSS | high polyreactivity
QVQLVESGGCLVHAGGSLRLSCAAYGSILKYNAIGWYIQAPGKERELVAAITSRGGSTYYADSVKGRFTISRDNAKNTVYLQMNSLKPEDTAVYYCNRVYLGYFRYDYWGQGTQVTVSS | high polyreactivity
QVQHVESGGGLVQAGGSLRLSCAASGRILKPNAMGWYRPAPGKERELVAAIRWRGDITYYADSVKGRFTISRDNAKNTVYLQMNSLKPEDTAVYYCNARTYYRRQKYDYWGQGTKVTVSS | high polyreactivity
QDQLVESGGGLVQAGGSLRLSCAASGRIFYFNTMGWSRQAPGKERELVAAISKNGGSTYYADSVKGRFTISRDIAKNTVYLQMNSLKPEDTAVYYCAKTRRLSPYDYWGQGTQVTVSS | high polyreactivity
QVQLVESGGGLVQAGGSLRLSCAASGFIFSYYAMGWYRQAPGKERELVATITSGGSTNYADSVKGRFTISRDNAKNTVYLQMNSLKPEDTAVYYCNALPGVSHTQYDRVGYWGQGTQVTLSS | high polyreactivity
QVQLVESGGGLVQAGGSLRLSCAASGFTNSMGWSTQAHGKERELVAAISYSGDSTNYADSVKGRFTISRDNAKNTVYLQMNSLKPEDTAVYYCNASSPYDYDWGQGTQVTVSS | low polyreactivity
QVQLEESVGGLVQAGGSLRLTCAASGSTLSYYSMGWYRQAPGKERELVARITRSGGRTYYADSVKGRFTISRDNEKNTVYLQINSLKPEDTGVYYCNKVAYYSRRMDYWGQGTLVTVSS | high polyreactivity
